Tests used:
Assay in all cases: ITC
[1] = molecular target: T1, CaM C-lobe fragment (residues 80–149) (UniProt P0DP23 80-149)
[2] = molecular target: T1, CaM C-lobe fragment (residues 80–149); remark: listed apart in the source
[3] = molecular target: T2, CaM N-lobe fragment (residues 1–80) (UniProt P0DP23 1-80)
[4] = molecular target: T2, CaM N-lobe fragment (residues 1–80); remark: listed apart in the source
[5] = molecular target: Calmodulin (CaM), full-length (UniProt P0DP23 1-149)

Row | Binder | Kd [1] | Ka [2] | Kd [3] | Ka [4] | Kd [5]
1 | NDRLQELVKLEKERTEKVKEKLIDP (peptide, UniProt Q14028 565-589, looked up) [CaM1^F575E peptide (CNGB1 residues 565–589, F575E)] | – | – | > 50 µM | < 20000 M⁻¹ | –
2 | NDRLQELVKLFKERTEKVKEKLIDP (peptide, UniProt Q14028 565-589, looked up) [CaM1 peptide, CNGB1 residues 565–589] | 29 ± 5 µM | 34000 M⁻¹ | 5.7 ± 1 µM | 180000 M⁻¹ | –
3 | GGKGAKGGKLAHLRARLKELAALEAAAK (peptide, UniProt Q14028 1120-1147, looked up) [CaM2 peptide, CNGB1 residues 1120–1147] | 0.1 ± 0.02 µM | 9.8e+06 M⁻¹ | – | < 18000 M⁻¹ | 25 ± 4 µM

More lines, now with the values ahead:

Row | Kd [1] | Ka [2] | Kd [3] | Ka [4] | Kd [5] | Binder
4 | 84 ± 10 µM | 12000 M⁻¹ | – | – | – | GGKGAKGGKLAHLRAREKELAALEAAAK (peptide, UniProt Q14028 1120-1147, looked up) [CaM2^L1136E peptide (CNGB1 residues 1120–1147, L1136E)]
5 | 54 ± 5 µM | 18000 M⁻¹ | – | – | – | GGKGAKGGKLAHERARLKELAALEAAAK (peptide, UniProt Q14028 1120-1147, looked up) [CaM2^L1132E peptide (CNGB1 residues 1120–1147, L1132E)]

— paper PMC9810080 (Biochemistry, 2022)
